The record followed here is US20190375795A1 (CGTX PEPTIDE DEVELOPMENT, published 2019).

In experiment [1] the target is human Kv1.3 (hKv1.3) channel (human, UniProt P22001 1-575). Briefly: cell-based or functional assay.
A further experiment addresses T1, Kv1.5 (UniProt P22460 1-613).
T1 construct: whole, on cells
Briefly: planar patch clamp (Port-A-Patch), channel expressed in cells.

T1 sequence (P22460 whole entry): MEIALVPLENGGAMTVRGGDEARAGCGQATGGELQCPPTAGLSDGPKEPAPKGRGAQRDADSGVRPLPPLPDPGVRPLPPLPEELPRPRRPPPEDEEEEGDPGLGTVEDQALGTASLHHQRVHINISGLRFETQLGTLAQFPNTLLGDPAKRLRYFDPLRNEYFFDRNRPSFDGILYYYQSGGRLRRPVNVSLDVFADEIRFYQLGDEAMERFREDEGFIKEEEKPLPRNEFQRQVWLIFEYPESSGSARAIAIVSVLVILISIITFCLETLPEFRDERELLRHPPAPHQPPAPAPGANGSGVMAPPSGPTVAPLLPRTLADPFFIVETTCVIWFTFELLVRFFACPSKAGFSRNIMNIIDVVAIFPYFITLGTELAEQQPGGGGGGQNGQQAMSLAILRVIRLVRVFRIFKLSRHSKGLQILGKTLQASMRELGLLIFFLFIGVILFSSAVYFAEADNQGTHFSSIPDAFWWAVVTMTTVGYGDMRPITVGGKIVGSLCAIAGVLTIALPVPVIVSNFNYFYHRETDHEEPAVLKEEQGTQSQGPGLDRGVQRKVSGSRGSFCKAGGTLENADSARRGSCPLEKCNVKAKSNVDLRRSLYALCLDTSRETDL
Sequence of human Kv1.3 (hKv1.3) channel (P22001 whole entry): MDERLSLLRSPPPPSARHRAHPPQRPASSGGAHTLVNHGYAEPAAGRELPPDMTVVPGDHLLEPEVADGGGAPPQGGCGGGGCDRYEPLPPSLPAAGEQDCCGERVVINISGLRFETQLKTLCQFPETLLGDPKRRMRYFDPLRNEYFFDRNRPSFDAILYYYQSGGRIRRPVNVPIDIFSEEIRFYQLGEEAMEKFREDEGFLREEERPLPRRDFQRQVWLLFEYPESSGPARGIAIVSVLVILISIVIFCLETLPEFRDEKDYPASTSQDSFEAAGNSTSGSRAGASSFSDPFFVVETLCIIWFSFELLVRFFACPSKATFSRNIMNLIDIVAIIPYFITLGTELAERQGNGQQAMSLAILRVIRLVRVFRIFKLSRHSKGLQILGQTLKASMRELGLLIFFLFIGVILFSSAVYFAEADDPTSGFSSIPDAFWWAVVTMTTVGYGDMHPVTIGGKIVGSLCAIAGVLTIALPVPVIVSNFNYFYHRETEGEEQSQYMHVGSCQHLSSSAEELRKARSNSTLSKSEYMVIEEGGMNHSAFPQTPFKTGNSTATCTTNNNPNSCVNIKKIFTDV

For the molecule ASCRTPKDCADPCRKETGCPYGKCMNRKCKCNRC (also called toxin HsTx 1) [HsTx 1], in experiment [1], the “selectivity for Kv1.3 vs. Kv1.1 (patch clamp IC50s)” value is about 450 fold. Also, the binding result with Kv1.5 is recorded as “no binding”.
